Assay: Thermostability of NTR and mutants (3H-neurotensin binding)
Assay type: physicochemical
Details: for thermostability, 3H-neurotensin (agonist) binding after the heating step: heated in the absence of the agonist
Method: FIG. 12 Flow chart showing the two different assay formats of ligand (+) and ligand (−) used to determine receptor thermostability.
• 1. 340 site-directed mutants have been made between residues 61-400 of NTR. • 2. Initially, all of these mutants were assayed for thermostability using an assay measuring ^3H-neurotensin (agonist) binding after the heating step. […] Mutants tested for thermostability by heating in the absence of the agonist were re-tested using a slightly different assay where the mutants were heated in the presence of ^3H-neurotensin (Ligand(+) format in FIG. 12). […] All of these also have increased thermostability. • 5. Preferred combinations are • a. Nag7m F358A+A86L+I260A+F342A Tm 51° C. (neurotensin bound) • b. Nag7n F358A+H103A+I260A+F342A Tm 51° C. (neurotensin bound) • Wildtype NTR has a Tm of 35° C. with neurotensin bound.

Molecule	thermostability, 3H-neurotensin (agonist) binding after the heating step	thermostability, heated in the presence of 3H-neurotensin (Ligand(+) format)
C386A: NTR point mutant (protein, UniProt P20789 1-424, looked up, variant C386A) Neurotensin receptor type 1: MHLNSSVPQGTPGEPDAQPFSGPQSEMEATFLALSLSNGSGNTSESDTAGPNSDLDVNTDIYSKVLVTAIYLALFVVGTVGNSVTAFTLARKKSLQSLQSTVHYHLGSLALSDLLILLLAMPVELYNFIWVHHPWAFGDAGCRGYYFLRDACTYATALNVASLSVERYLAICHPFKAKTLMSRSRTKKFISAIWLASALLAIPMLFTMGLQNRSGDGTHPGGLVCTPIVDTATVKVVIQVNTFMSFLFPMLVISILNTVIANKLTVMVHQAAEQGRVCTVGTHNGLEHSTFNMTIEPGRVQALRHGVLVLRAVVIAFVVCWLPYHVRRLMFCYISDEQWTTFLFDFYHYFYMLTNALFYVSSAINPILYNLVSANFRQVFLSTLAALCPGWRHRRKKRPTFSRKPNSMSSNHAFSTSATRETLY	small but significant increase in thermostability	–
I116A: NTR point mutant (protein, UniProt P20789 1-424, looked up, variant I116A) Neurotensin receptor type 1: MHLNSSVPQGTPGEPDAQPFSGPQSEMEATFLALSLSNGSGNTSESDTAGPNSDLDVNTDIYSKVLVTAIYLALFVVGTVGNSVTAFTLARKKSLQSLQSTVHYHLGSLALSDLLALLLAMPVELYNFIWVHHPWAFGDAGCRGYYFLRDACTYATALNVASLSVERYLAICHPFKAKTLMSRSRTKKFISAIWLASALLAIPMLFTMGLQNRSGDGTHPGGLVCTPIVDTATVKVVIQVNTFMSFLFPMLVISILNTVIANKLTVMVHQAAEQGRVCTVGTHNGLEHSTFNMTIEPGRVQALRHGVLVLRAVVIAFVVCWLPYHVRRLMFCYISDEQWTTFLFDFYHYFYMLTNALFYVSSAINPILYNLVSANFRQVFLSTLACLCPGWRHRRKKRPTFSRKPNSMSSNHAFSTSATRETLY	small but significant increase in thermostability	–
K397A: NTR point mutant (protein, UniProt P20789 1-424, looked up, variant K397A) Neurotensin receptor type 1: MHLNSSVPQGTPGEPDAQPFSGPQSEMEATFLALSLSNGSGNTSESDTAGPNSDLDVNTDIYSKVLVTAIYLALFVVGTVGNSVTAFTLARKKSLQSLQSTVHYHLGSLALSDLLILLLAMPVELYNFIWVHHPWAFGDAGCRGYYFLRDACTYATALNVASLSVERYLAICHPFKAKTLMSRSRTKKFISAIWLASALLAIPMLFTMGLQNRSGDGTHPGGLVCTPIVDTATVKVVIQVNTFMSFLFPMLVISILNTVIANKLTVMVHQAAEQGRVCTVGTHNGLEHSTFNMTIEPGRVQALRHGVLVLRAVVIAFVVCWLPYHVRRLMFCYISDEQWTTFLFDFYHYFYMLTNALFYVSSAINPILYNLVSANFRQVFLSTLACLCPGWRHRRKARPTFSRKPNSMSSNHAFSTSATRETLY	small but significant increase in thermostability	–
R392A: NTR point mutant (protein, UniProt P20789 1-424, looked up, variant R392A) Neurotensin receptor type 1: MHLNSSVPQGTPGEPDAQPFSGPQSEMEATFLALSLSNGSGNTSESDTAGPNSDLDVNTDIYSKVLVTAIYLALFVVGTVGNSVTAFTLARKKSLQSLQSTVHYHLGSLALSDLLILLLAMPVELYNFIWVHHPWAFGDAGCRGYYFLRDACTYATALNVASLSVERYLAICHPFKAKTLMSRSRTKKFISAIWLASALLAIPMLFTMGLQNRSGDGTHPGGLVCTPIVDTATVKVVIQVNTFMSFLFPMLVISILNTVIANKLTVMVHQAAEQGRVCTVGTHNGLEHSTFNMTIEPGRVQALRHGVLVLRAVVIAFVVCWLPYHVRRLMFCYISDEQWTTFLFDFYHYFYMLTNALFYVSSAINPILYNLVSANFRQVFLSTLACLCPGWAHRRKKRPTFSRKPNSMSSNHAFSTSATRETLY	small but significant increase in thermostability	–
F358A: NTR point mutant (protein, UniProt P20789 1-424, looked up, variant F358A) Neurotensin receptor type 1: MHLNSSVPQGTPGEPDAQPFSGPQSEMEATFLALSLSNGSGNTSESDTAGPNSDLDVNTDIYSKVLVTAIYLALFVVGTVGNSVTAFTLARKKSLQSLQSTVHYHLGSLALSDLLILLLAMPVELYNFIWVHHPWAFGDAGCRGYYFLRDACTYATALNVASLSVERYLAICHPFKAKTLMSRSRTKKFISAIWLASALLAIPMLFTMGLQNRSGDGTHPGGLVCTPIVDTATVKVVIQVNTFMSFLFPMLVISILNTVIANKLTVMVHQAAEQGRVCTVGTHNGLEHSTFNMTIEPGRVQALRHGVLVLRAVVIAFVVCWLPYHVRRLMFCYISDEQWTTFLFDFYHYFYMLTNALAYVSSAINPILYNLVSANFRQVFLSTLACLCPGWRHRRKKRPTFSRKPNSMSSNHAFSTSATRETLY	small but significant increase in thermostability	improved thermostability
S108A: NTR point mutant (protein, UniProt P20789 1-424, looked up, variant S108A) Neurotensin receptor type 1: MHLNSSVPQGTPGEPDAQPFSGPQSEMEATFLALSLSNGSGNTSESDTAGPNSDLDVNTDIYSKVLVTAIYLALFVVGTVGNSVTAFTLARKKSLQSLQSTVHYHLGALALSDLLILLLAMPVELYNFIWVHHPWAFGDAGCRGYYFLRDACTYATALNVASLSVERYLAICHPFKAKTLMSRSRTKKFISAIWLASALLAIPMLFTMGLQNRSGDGTHPGGLVCTPIVDTATVKVVIQVNTFMSFLFPMLVISILNTVIANKLTVMVHQAAEQGRVCTVGTHNGLEHSTFNMTIEPGRVQALRHGVLVLRAVVIAFVVCWLPYHVRRLMFCYISDEQWTTFLFDFYHYFYMLTNALFYVSSAINPILYNLVSANFRQVFLSTLACLCPGWRHRRKKRPTFSRKPNSMSSNHAFSTSATRETLY	small but significant increase in thermostability	–
H393A: NTR point mutant (protein, UniProt P20789 1-424, looked up, variant H393A) Neurotensin receptor type 1: MHLNSSVPQGTPGEPDAQPFSGPQSEMEATFLALSLSNGSGNTSESDTAGPNSDLDVNTDIYSKVLVTAIYLALFVVGTVGNSVTAFTLARKKSLQSLQSTVHYHLGSLALSDLLILLLAMPVELYNFIWVHHPWAFGDAGCRGYYFLRDACTYATALNVASLSVERYLAICHPFKAKTLMSRSRTKKFISAIWLASALLAIPMLFTMGLQNRSGDGTHPGGLVCTPIVDTATVKVVIQVNTFMSFLFPMLVISILNTVIANKLTVMVHQAAEQGRVCTVGTHNGLEHSTFNMTIEPGRVQALRHGVLVLRAVVIAFVVCWLPYHVRRLMFCYISDEQWTTFLFDFYHYFYMLTNALFYVSSAINPILYNLVSANFRQVFLSTLACLCPGWRARRKKRPTFSRKPNSMSSNHAFSTSATRETLY	small but significant increase in thermostability	–
M181A: NTR point mutant (protein, UniProt P20789 1-424, looked up, variant M181A) Neurotensin receptor type 1: MHLNSSVPQGTPGEPDAQPFSGPQSEMEATFLALSLSNGSGNTSESDTAGPNSDLDVNTDIYSKVLVTAIYLALFVVGTVGNSVTAFTLARKKSLQSLQSTVHYHLGSLALSDLLILLLAMPVELYNFIWVHHPWAFGDAGCRGYYFLRDACTYATALNVASLSVERYLAICHPFKAKTLASRSRTKKFISAIWLASALLAIPMLFTMGLQNRSGDGTHPGGLVCTPIVDTATVKVVIQVNTFMSFLFPMLVISILNTVIANKLTVMVHQAAEQGRVCTVGTHNGLEHSTFNMTIEPGRVQALRHGVLVLRAVVIAFVVCWLPYHVRRLMFCYISDEQWTTFLFDFYHYFYMLTNALFYVSSAINPILYNLVSANFRQVFLSTLACLCPGWRHRRKKRPTFSRKPNSMSSNHAFSTSATRETLY	small but significant increase in thermostability	–

From patent US8785135B2, “Mutant G-protein coupled receptors and methods for selecting them” (Heptares Therapeutics Limited, priority 2007, dated 2014)
